Substrate: CO[C@@H]1O[C@H](CO)[C@H](O)[C@@H](O)[C@H]1O
Assay: purified protein
Type: biochemical, Escherichia coli
Details: oxidation, 2.0 mM NAD+, 50 mM HEPES/K+, pH 8.0, 30 °C

B1: YcjQ (Escherichia coli K-12) (protein)
chain: MKKLVATAPRVAALVEYEDRAILANEVKIRVRFGAPKHGTEVVDFRAASPFIDEDFNGEWQMFTPRPADAPRGIEFGKFQLGNMVVGDIIECGSDVTDYAVGDSVCGYGPLSETVIINAVNNYKLRKMPQGSSWKNAVCYDPAQFAMSGVRDANVRVGDFVVVVGLGAIGQIAIQLAKRAGASVVIGVDPIAHRCDIARRHGADFCLNPIGTDVGKEIKTLTGKQGADVIIETSGYADALQSALRGLAYGGTISYVAFAKPFAEGFNLGREAHFNNAKIVFSRACSEPNPDYPRWSRKRIEETCWELLMNGYLNCEDLIDPVVTFANSPESYMQYVDQHPEQSIKMGVTF
Km: 12.5 ± 1.5 mM | kcat: 0.35 ± 0.03 s⁻¹ | kcat/Km: 28 ± 3 M⁻¹ s⁻¹
